Assay results taken from patent US20250179196A1 (Janssen / Centocor, published 2025).
Substitutions are numbered along the chain they refer to.

T1: Recombinant human IL-23 receptor (IL-23R) extracellular domain (ECD) protein (human, UniProt Q5VWK5 24-355)
T1 construct: also called human IL-23R ECD; hu IL-23R ECD
T1 sequence: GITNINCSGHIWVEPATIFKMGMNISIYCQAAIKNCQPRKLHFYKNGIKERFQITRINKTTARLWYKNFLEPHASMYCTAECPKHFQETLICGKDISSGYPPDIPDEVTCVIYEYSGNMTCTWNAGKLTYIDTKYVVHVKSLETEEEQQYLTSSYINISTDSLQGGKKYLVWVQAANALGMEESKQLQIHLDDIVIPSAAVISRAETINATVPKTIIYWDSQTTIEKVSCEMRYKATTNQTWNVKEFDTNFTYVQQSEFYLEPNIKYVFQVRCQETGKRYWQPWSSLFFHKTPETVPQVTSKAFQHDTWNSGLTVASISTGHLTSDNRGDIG

T2: rat IL-23R extracellular domain (ECD) protein (rat)
T2 construct: also called rat IL-23R ECD; F1LX96 amino acids 24-354
T2 chain: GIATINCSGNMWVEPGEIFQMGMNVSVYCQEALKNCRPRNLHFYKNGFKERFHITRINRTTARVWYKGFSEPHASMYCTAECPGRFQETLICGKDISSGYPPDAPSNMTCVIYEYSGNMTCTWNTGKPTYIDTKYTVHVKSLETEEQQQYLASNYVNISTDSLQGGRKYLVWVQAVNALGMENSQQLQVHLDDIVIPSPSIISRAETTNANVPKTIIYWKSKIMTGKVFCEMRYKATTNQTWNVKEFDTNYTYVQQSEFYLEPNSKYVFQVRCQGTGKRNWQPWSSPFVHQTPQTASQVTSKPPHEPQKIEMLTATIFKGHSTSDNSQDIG

B1: I23RB2 (antibody, mouse IgG2a, kappa, V domains shown)
VH: QVQLVQSGAEVKKPGSSVKVSCKASGGTFSSYAISWVRQAPGQGLEWMGGIIPIFGTANYAQKFQGRVTITADESTSTAYMELSSLRSEDTAVYYCARDRYRYLGANGFDYWGQGTLVTVSS
VL: EIVLTQSPATLSLSPGERATLSCRASQSVSSYLAWYQQKPGQAPRLLIYDASNRATGIPARFSGSGSGTDFTLTISSLEPEDFAVYYCQQRSNWPLTFGQGTKVEIKR
notes: phage display; human V regions, mouse IgG2a/kappa constant regions
B2: I23RB9 (antibody, mouse IgG2a, kappa, V domains shown)
VH: QVQLVQSGAEVKKPGSSVKVSCKASGGTFSSYAISWVRQAPGQGLEWMGGIIPIFGTANYAQKFQGRVTITADESTSTAYMELSSLRSEDTAVYYCARDRSYSYGLSGLGYYGFDYWGQGTLVTVSS
VL: B1 VL
notes: as for B1
B3: I23RB94 (antibody, mouse IgG2a, kappa, V domains shown)
VH: DVQLQESGPELKKPGETVKISCKASGYTFTNYGMNWVRQAPGKSLKWMGWINTNTGEPAYAEEFKGRFAFSLETSASTAYLQINNLKNEDMATYFCARVRQTARATRGYFDVWGTGTTVTVSS
VL: DIVMTQSHKFMSTSVGDRVSITCKASQDVNTAVAWYQQKPGQSPKLLIYSAFYRYPGVPDRFTGSGSGTDFTFTINSVQAEDLAVYCCQQHYTSPLTFGDGTRLEIKR
notes: mouse immunization; mouse IgG2a/kappa
B4: I23RB144 (antibody, mouse IgG2a, kappa, V domains shown)
VH: EVQLQQSGPELVKPGASVKMSCKASGYTFTSYIIHWVKQKPGQGLEWIGYIDPYNDDTKYNEKFKGKATLTSDKSSSTAYMEFSSLTSEDSAVYYCARLGSINYYDGSYFDYWGQGTSVTVSS
VL: DIVMTQSPLTLSVIIGQSASISCKSSQSLLDSDGKTYLNWLLQRPGQSPKRLMYLVSKLDSGVPDRFTGSGSGTDFTLKISRVEAEDLGVYYCWQGIHFPLTFGSGTRLEIKR
notes: as for B3
B5: I23RB148 (antibody, mouse IgG2a, kappa, V domains shown)
VH: DVQLQESGPDLVKPSQSLSLTCTVTGYSITSGYNWHWIRQFPGNKLEWMGYIHSSGTTNYSPSLRSRLSITRDTSKNQFFLQLNSVTTEDTATYYCTRQLGLKAMEYWGQGTTLTVSS
VL: DIVMTQSHKFMSTSVGDRVSLTCKASQEVRTAVAWYQQKPGQPPKLLIYSASYRYTGVPDRFTGSGSGTDFTFTIISVQAEDLAVYYCQQHYTTPYSFGSGTKLEIKR
notes: as for B3
B6: I23RB42 (antibody, mouse IgG2a, kappa, V domains shown)
VH: EVQLQQSGAELVKPGASVKISCKASGYSFTDYIMNWVKQSHGKSLEWIGNINPYFGFTSYNQEFKGKATLTVDKSSSTAYMLLNSLTSEDSAVYYCSRGSYYGYETFFDYWGQGTTLTVSS
VL: DIVLTQTAPSVPVTPGESVSISCRSSKSLLHSNGNTYLYWFLQRPGQSPQLLIYRMSNLASGVPDRFSGSGSGTAFTLRISRVEAEDVGVYYCMQHLEYPYTFGSGTRLEIKR
notes: as for B3
B7: I23RB150 (antibody, mouse IgG2a, kappa, V domains shown)
VH: QIQLVQSGPELKKPGETVKISCKASAYTFTNYGMNWVKQAPGKGLKWMGWIKTNTGEPTYAEEFKGRFAFSLETSASTAYLQINNLKNEDTATYFCARSRQLGLRYYFDYWGQGTTLTVSS
VL: DIVMTQSHKFMSTSVGGRVSITCKASQDVSTAVAWYQQKPGQSPRLLIYSASYRYTGVPDRFTGSGSGTDFTFTISSVQAEDLAVFYCQQHYSTPYTFGSGTRLEIKR
notes: as for B3
B8: I23RB65 (antibody, mouse IgG2a, kappa, V domains shown)
VH: EVQLQQSGPELVKPGASVKISCKASGYTFTDHTMDWVKQSHGKSLEWIGYIYPKSGNAAYSQKFKSEATLTVDKSSSTAYMEFHSLTSEDSAVYYCARWGLRRDGFTYWGQGTSVTVSS
VL: QIVLTQSPASLAVSLGQRATISCRASQSVSTSSYNYIHWYQQKPGQPPKLLIKYASNLESGVPARFSGSGSGTDFTLNIHPVEEDDTATYYCQHTWEIPYTFGSGTKLEIKR
notes: as for B3
B9: I23RB92 (antibody, mouse IgG2a, kappa, V domains shown)
VH: EVQLQQSGPEVVKPGASVKISCKASGYTFTDHTMDWVKQSHGKNLEWIGYIYPKSGGTGYNQKFKNKATLTVDKSSSTAYMEFHSLTSDDSAVYYCARWGLRRDGFVYWGQGTLVTVSA
VL: B8 VL with Q1D, V3K, L4M, S33K, N35D, P44S, K49R, D85E, I110L
notes: as for B3
B10: I23RB76 (antibody, mouse IgG2a, kappa, V domains shown)
VH: EVQLQQSGPELVKPGASVKMSCKASGYTFTDYYMNWMKQSHGKSLEWIGYISPKNGRTGYNQKFKGKATLTVDKSSTTAYMELRSLTSEDSAVYYCAKSNGYYALDYWGQGTTVTVSS
VL: DIVLTQSPATLCVTPGETVSLSCRASQNIYKNLHWFQQKSHRSPRLLIKYASDSISGIPSRFTGSGSGTDYTLSINSVKPEDEGIYYCLQGYSTPWTFGGGTKLEIKR
notes: as for B3
B11: I23RB6 (antibody, mouse IgG2a, kappa, V domains shown)
VH: QVQLVQSGAEVKKPGSSVKVSCKASGGTFSSYAISWVRQAPGQGLEWMGGIIPIFGTANYAQKFQGRVTITADESTSTAYMELSSLRSEDTAVYYCARGRYIRSYDYFDYWGQGTLVTVSS
VL: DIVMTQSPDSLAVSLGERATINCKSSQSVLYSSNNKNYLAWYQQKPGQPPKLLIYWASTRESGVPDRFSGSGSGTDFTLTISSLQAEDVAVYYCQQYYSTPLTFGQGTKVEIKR
notes: as for B1

Tests used:
[1] = target: T1, Recombinant human IL-23 receptor …; experiment: SPR ProteOn, purified
Experimental: Affinity by SPR using ProteOn. Affinity measurements using Surface Plasmon Resonance (SPR) were performed using a ProteOn XPR36 system (BioRad). […] Approximately 6000 RU (response units) of mAbs were immobilized. The kinetic experiments were performed at 25° C. in running buffer (DPBS+0.01% P20+100 μg/ml BSA). […] The association phase was monitored for 3 minutes at 50 μL/min, then followed by 10 minutes of buffer flow (dissociation phase). The chip surface was regenerated with two 18 second pulses of 100 mM H3PO4 (Sigma, Cat #7961) at 100 μL/min. The collected data were processed using ProteOn Manager software. First, the data was corrected for background using inter-spots. Then, double reference subtraction of the data was performed by using the buffer injection for analyte injections. The kinetic analysis of the data was performed using a Langmuir 1:1 binding model. The result for each mAb was reported in the format of Ka (On-rate), Kd (Off-rate) and KD (equilibrium dissociation constant).

[2] = target: T2, rat IL-23R extracellular domain (ECD) …; experiment: SPR Biacore 8K, supernatant
Procedure, shortened: (§1)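 mAbs captured (~150 RU) on Biacore 8K; human or rat IL-23R ECD injected at 0.8–500 nM (5-fold series) at 25 °C in HBS-P+ with 100 μg/ml BSA. Association 3 min at 50 μL/min, dissociation 30 min. Ka, Kd and KD from Langmuir 1:1 fit.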

[3] = target: T1, Recombinant human IL-23 receptor …; experiment: SPR Biacore 8K, purified, analysis 1
Experimental: (§2) Affinity by SPR using Biacore 8K. Affinity measurements using Surface Plasmon Resonance (SPR) were performed using a Biacore 8K system (Cytiva). […] Approximately 9000-10000 RU (response units) of mAbs were immobilized. The kinetic experiments were performed at 25° C. in running buffer 1× of (HBS-P+ Buffer 10× (Cytiva #BR100671)+100 μg/ml BSA). To perform kinetic experiments, approximately 150 RU of mAbs were captured followed by injections of human IL-23R or rat IL-23R at concentrations ranging from 0.8 nM to 500 nM (in a 5-fold serial dilution). The association phase was monitored for 3 minutes at 50 μL/min, then followed by 30 minutes of buffer flow (dissociation phase). […] The collected data were processed using Biacore insight Evaluation software (Version 3.0.12.15655). The kinetic analysis of the data was performed using a Langmuir 1:1 binding model. The result for each mAb was reported in the format of Ka (On-rate), Kd (Off-rate) and KD (equilibrium dissociation constant).

[4] = target: T1, Recombinant human IL-23 receptor …; experiment: SPR Biacore 8K, purified, analysis 2
Experimental: as §2

[5] = target: T1, Recombinant human IL-23 receptor …; experiment: SPR Biacore 8K, supernatant, analysis 2
Procedure, shortened: as §1

[6] = target: T1, Recombinant human IL-23 receptor …; experiment: SPR Biacore 8K, supernatant, analysis 1
Procedure, shortened: as §1

| Binder | Kd [1] [µM] | binding result [1] | binding result [2] | Kd [3] [nM] | koff [3] [s⁻¹] | kon [3] [M⁻¹ s⁻¹] | Kd [4] [nM] | koff [4] [s⁻¹] | kon [4] [M⁻¹ s⁻¹] | Kd [5] [nM] | koff [5] [s⁻¹] | kon [5] [M⁻¹ s⁻¹] | Kd [6] [nM] | koff [6] [s⁻¹] | kon [6] [M⁻¹ s⁻¹] |
| --- | --- | --- | --- | --- | --- | --- | --- | --- | --- | --- | --- | --- | --- | --- | --- |
| B1 | > 4 |  |  |  |  |  |  |  |  |  |  |  |  |  |  |
| B2 |  | no binding |  |  |  |  |  |  |  |  |  |  |  |  |  |
| B3 |  |  | no binding (tested: 500 nM) | 0.8 | 0.00063 | 787000 | 1.15 | 0.000753 | 656000 | 1 | 0.000686 | 685000 |  |  |  |
| B4 |  |  | no binding (tested: 500 nM) |  |  |  |  |  |  | 53.3 | 0.00277 | 52000 | 30.6 | 0.00272 | 89000 |
| B5 |  |  | no binding (tested: 500 nM) |  |  |  |  |  |  | 0.766 | 0.000382 | 498000 | 0.874 | 0.000459 | 525000 |
| B6 |  |  |  | 0.0725 | 5.76e-05 | 795000 | 0.117 | 6.25e-05 | 535000 | 0.108 | 6.29e-05 | 582000 |  |  |  |
| B7 |  |  | no binding (tested: 500 nM) |  |  |  |  |  |  | 112 | 0.0376 | 334000 | 96.5 | 0.0329 | 341000 |
| B8 |  |  | no binding (tested: 500 nM) | < 0.0597 | < 2.89e-05 | 484000 | < 0.0723 | < 2.89e-05 | 400000 | 0.11 | 4.58e-05 | 416000 |  |  |  |
| B9 |  |  | no binding (tested: 500 nM) | < 0.109 | < 2.89e-05 | 265000 | < 0.12 | < 2.89e-05 | 240000 | < 0.124 | < 2.89e-05 | 233000 |  |  |  |
| B10 |  |  | no binding (tested: 500 nM) | 0.0891 | 5.62e-05 | 631000 | 0.0859 | 4.14e-05 | 482000 | 0.0805 | 3.9e-05 | 484000 |  |  |  |
| B11 |  | no binding |  |  |  |  |  |  |  |  |  |  |  |  |  |
